From US20240101645A1 (HENRY M JACKSON FOUNDATION FOR THE ADVANCEMENT OF MILITARY …, published 2024) come the findings set out here.

In test [1] the target is T1, SARS-CoV-2 NTD (1-290) (SARS-CoV-2, UniProt P0DTC2 14-290).
T1 construct: range 1-290
Briefly: BLI, 1:1 model. A general note: Biolayer interferometry detects binding as a change in optical thickness at a sensor tip.

Test [2] deals with SARS-CoV-2 S on pseudovirions (Wuhan Hu-1 / IL1/2020, last 18 amino acids removed) (SARS-CoV-2, UniProt P0DTC2 14-1273). Nature of the test: cell-based or functional assay.
For test [3], the target named is T2, MERS-CoV spike antigens (bead panel) (MERS-CoV, UniProt K9N5Q8 18-1296).
T2 sequence: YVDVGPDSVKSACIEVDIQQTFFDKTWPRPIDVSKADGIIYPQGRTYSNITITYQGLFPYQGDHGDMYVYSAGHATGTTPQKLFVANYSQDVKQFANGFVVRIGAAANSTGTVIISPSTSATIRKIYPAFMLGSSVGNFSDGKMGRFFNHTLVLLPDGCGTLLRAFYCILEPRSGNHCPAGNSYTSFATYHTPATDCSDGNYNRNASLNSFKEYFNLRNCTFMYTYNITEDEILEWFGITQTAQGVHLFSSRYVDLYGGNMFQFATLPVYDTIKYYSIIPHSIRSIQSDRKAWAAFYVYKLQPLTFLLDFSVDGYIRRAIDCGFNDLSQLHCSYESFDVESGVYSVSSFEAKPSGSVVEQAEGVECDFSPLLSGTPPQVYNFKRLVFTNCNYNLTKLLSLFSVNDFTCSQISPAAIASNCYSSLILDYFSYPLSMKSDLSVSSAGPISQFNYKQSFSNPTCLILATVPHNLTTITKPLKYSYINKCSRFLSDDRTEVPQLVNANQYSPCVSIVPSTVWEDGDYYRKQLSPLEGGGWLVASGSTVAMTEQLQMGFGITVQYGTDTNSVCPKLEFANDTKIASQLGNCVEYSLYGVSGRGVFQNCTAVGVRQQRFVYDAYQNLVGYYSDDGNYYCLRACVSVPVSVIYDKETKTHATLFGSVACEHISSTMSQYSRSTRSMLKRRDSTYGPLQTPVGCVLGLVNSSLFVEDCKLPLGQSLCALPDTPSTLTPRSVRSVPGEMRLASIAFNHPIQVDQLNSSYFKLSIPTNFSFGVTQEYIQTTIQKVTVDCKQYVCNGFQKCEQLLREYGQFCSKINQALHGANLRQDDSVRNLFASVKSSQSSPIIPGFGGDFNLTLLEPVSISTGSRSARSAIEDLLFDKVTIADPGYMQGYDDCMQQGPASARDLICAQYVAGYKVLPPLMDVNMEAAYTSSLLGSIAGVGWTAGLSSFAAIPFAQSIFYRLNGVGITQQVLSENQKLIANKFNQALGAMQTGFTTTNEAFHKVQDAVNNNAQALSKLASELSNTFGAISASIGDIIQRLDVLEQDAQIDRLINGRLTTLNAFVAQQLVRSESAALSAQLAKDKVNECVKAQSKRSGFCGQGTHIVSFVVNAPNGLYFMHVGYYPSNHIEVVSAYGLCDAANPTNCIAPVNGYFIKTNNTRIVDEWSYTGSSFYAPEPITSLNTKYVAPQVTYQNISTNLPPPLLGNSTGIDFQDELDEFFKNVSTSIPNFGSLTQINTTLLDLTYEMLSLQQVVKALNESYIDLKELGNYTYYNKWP
Nature of the test: multiplex bead assay.

For test [4], the target named is T1, SARS-CoV-2 NTD (1-290). Nature of the test: multiplex bead assay.

B1: COV_2039 (antibody, V domains shown)
VH: QVQLVQSGAEVKKPGASVKVSCKVSGYMLIELSMHWVRQAPGKGLEWMGGFDPEDAETIYAQEFQGRVTMTEDTSTDTAYMELSSLRSEDTAVYYCTTGPAVTNRPADYWGPGTLVTVSS
VL: QSVLTQPPSVSGAPGQRVTISCTGSSSNIGASYDVHWYQQLPGTAPKLLIYANSNRPSGVPDRFSGSKSGTSASLAITGLQAEDEADYYCQSYDSSLSYSVVFGGGTKLTVL
notes: human IgG1
A word on the Kd: it is the constant that tells how readily two partners part at equilibrium. B1 returned a Kd with SARS-CoV-2 NTD (1-290) [1] below 1 pM. Moreover, in test [2], the “IC50, pseudotyped neutralization assay” value was 6 ng/mL.

B2: COV_2123 (antibody, V domains shown)
VH: EVQLVESGGGVVQPGRSLRLSCAASGFTFSSYAMHWVRQAPGKGLEWVAVLSYDGSNKYNADSVKGRFTISRDNSKNTLYLQMNSLRVEDTAMYYCARDGVSVTMVRGVIGPLCDYWGQGTLVTVSS
VL: not shown
notes: human IgG1
Consider B2, for which, in test [2], the “IC50, pseudotyped neutralization assay” value was 4 ng/mL.

B3: COV_2025 (antibody, V domains shown)
VH: QVHLVQSGAEVKKPGASVKVSCKVSGYTLVELSVHWVRQAPAKGLEWIGGFDPEDGETIYAQKFQGRVTMTEDTSTDTAYMELTNLRSEDTAVYYCVTSQPFVSPNWFDPWGQGTLVTVSS
VL: QSALTQPASVSGSPGQSITISCTGTSRDVGAYNYVSWYQQHPGKAPKLMIYEVTTRPSGVSNRFSGSKSGNTASLTISGLQAEDEADYYCSSYTGSRTLVFGTGTKVTVL
notes: human IgG1
In the test with SARS-CoV-2 NTD (1-290) [1], B3 had a Kd below 1 pM. The “IC50, pseudotyped neutralization assay” value in test [2] worked out at 9 ng/mL.

B4: COV_2054 (antibody, V domains shown)
VH: EVQLVESGGGVLQPGRSLRLSCAASGFTFNNYALHWVRQAPGKGLEWVAVISYDGSSKYYADSVRGRLTISRDNSRNTLYLQMNSLRPEDTAIYYCARDGDGLWLGESFYFDDWGQGTLVTVSS
VL: DIQMTQSPSTLSASVGDRVIITCRASQSISSWLAWYQQKPGKAPKLLIYEASTLQSGVPSRFSGSGSGTEFTLTISSLQPDDSATYYCQQYNSYPVHFSQGTKLEIK
notes: human IgG1
Take B4: in the test with SARS-CoV-2 NTD (1-290) [1], the Kd was below 1 pM.

B5: COV_2004 (antibody, V domains shown)
VH: QVQLVQSGAEVKKPGASVKVSCKASGYTFTGYYMHWVRQAPGQGLEWMGRINPSSGGTNYAQKFQGRVTMTRDTSISTAYMELSSLRSDDTAVYYCATDGDDGENWFDPWGQGTLVIVSS
VL: DIQMTQSPSSLSASVGDRVTITCRASQGISSWLAWYQQKPEKAPKSLIYAASSLQSGVPSRFSGSGSGTDFTLTISSLQPEDFATYYCQQYNSYPYTFGQGTKLEIK
notes: human IgG1
In the case of B5, the binding result in test [3] is recorded as “no binding”. Besides, the Kd with SARS-CoV-2 NTD (1-290) [1] was below 1 pM.

B6: COV_2137 (antibody, V domains shown)
VH: EVQLVESGGGLVKPGGSLRLSCAASGFTFSSYTMNWVRQAPGKGLEWVSSISSGSSFIYYADSLRGRFTISRDNAKNSLYLQMNSLRAEDTAVYYCARAPEPQSVIYAYWYFDLWGRGTLVTVSS
VL: QSALTQPASVSGSPGQSITFSCTGTSSDVGSYNLVSWYQQYPGKAPKLMIYEVNKRPSGVSNRFSGSKSGNTASLTISGLQAEDEADYYCCSYAGSSTFYVFGTGTKVTVLG
notes: human IgG1
Regarding B6, the binding result in test [3] was “no binding”; in the test with SARS-CoV-2 NTD (1-290) [4], “binds”.

B7: COV_2103 (antibody, V domains shown)
VH: EVQLVESGGGVVQPGRSLRLSCGASGFTFSSYGIHWVRQAPGKGLDWVAVIWHDGSQKYYGDSVKGRFTISRDNSKNTLYLQMNRLRAEDTAVYYCARDSGDDYDSSGYPIGNAFDLWGQGTMVTVSS
VL: DIQMTQSPSTLSASVGDRVTITCRASQFINSWLAWYQQKPGKAPKLLIYKASSLETGVPSRFSGSGSGTEFTLTISSLQPDDFATYYCQQYNTYSFTFGPGTKVDIK
notes: human IgG1
Molecule B7 yielded a Kd with SARS-CoV-2 NTD (1-290) [1] below 1 pM.
